Reference: PMC9456514, “Three-Dimensional Envelope and Subunit Interactions of the Plastid-Encoded RNA Polymerase from Sinapis alba” (International Journal of Molecular Sciences, 2022)

Target: T1, β subunit of the plastid-encoded RNA polymerase (SaRpoB) (Sinapis alba (endogenous in cotyledon …, UniProt P46818 1-1078))
T1 construct: RNA polymerase β subunit, product of the plastid gene rpoB, Sinapis alba
T1 sequence (looked up): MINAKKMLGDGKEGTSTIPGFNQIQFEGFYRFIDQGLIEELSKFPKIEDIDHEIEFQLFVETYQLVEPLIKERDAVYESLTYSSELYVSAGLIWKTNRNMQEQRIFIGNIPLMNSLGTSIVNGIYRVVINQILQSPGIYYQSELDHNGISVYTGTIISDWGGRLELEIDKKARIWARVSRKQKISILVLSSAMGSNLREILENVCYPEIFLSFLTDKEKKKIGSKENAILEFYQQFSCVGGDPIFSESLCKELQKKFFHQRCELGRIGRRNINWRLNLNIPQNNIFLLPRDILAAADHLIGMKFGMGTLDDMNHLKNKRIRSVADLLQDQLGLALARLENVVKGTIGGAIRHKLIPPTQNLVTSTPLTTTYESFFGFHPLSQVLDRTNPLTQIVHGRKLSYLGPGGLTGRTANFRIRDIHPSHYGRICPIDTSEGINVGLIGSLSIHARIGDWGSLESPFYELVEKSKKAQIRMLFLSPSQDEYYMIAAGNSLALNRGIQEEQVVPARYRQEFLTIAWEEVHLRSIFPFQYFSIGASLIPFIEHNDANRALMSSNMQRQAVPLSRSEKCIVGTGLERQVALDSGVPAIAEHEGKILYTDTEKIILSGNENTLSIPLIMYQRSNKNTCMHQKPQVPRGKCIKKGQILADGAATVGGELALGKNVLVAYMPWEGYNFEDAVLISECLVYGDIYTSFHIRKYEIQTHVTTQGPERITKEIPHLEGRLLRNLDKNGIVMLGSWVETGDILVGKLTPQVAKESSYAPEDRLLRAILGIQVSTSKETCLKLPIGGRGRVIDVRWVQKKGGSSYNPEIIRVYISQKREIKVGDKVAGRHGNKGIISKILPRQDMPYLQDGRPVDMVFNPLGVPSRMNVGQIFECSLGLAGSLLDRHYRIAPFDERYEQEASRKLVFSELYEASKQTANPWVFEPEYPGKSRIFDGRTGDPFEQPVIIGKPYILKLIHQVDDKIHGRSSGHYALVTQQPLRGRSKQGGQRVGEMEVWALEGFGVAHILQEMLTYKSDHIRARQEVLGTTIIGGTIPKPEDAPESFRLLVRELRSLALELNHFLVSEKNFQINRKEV
Experiment: co-purification of the native complex with mass spectrometry; chloroplast lysate of S. alba cotyledons; heparin resin (elution 1.2 M (NH4)2SO4), 35-15% glycerol gradient, Q-Sepharose (0-1 M NaCl), 100-kDa cutoff concentration; three independent preparations; label-free MS, iBAQ values
Conditions: partners not purified

B1: α subunit of the plastid-encoded RNA polymerase (SaRpoA) (natural protein, UniProt Q9XQN8 1-327, looked up)
chain: MVREKVKVSTRTLQWKCVESRRDSKRLYYGRFILSPLMKGQADTIGIAMARALLGEIEGTCITRAKSENIPHDYSNIVGIQESVHEILMNLNEIVLKSNLYGTRNPFICVQGPGYITARDIILPPSVEIVDNTQHIATLTEPINLCIGLKIERNRGYSLKMSNNFEDRSYPIDAVFMPVQNANHSIHSYGNGNEKQEILFIEIWTNGSLTPKEALYEASRNLINLFIPFLHVEEETFYLENNQHQVTLPVFPFHNKLVNLRQKKKELAFQYIFIDQLELPPRIYNCLKKSNIHTLLDLLNNSQEDLIKMEHFHIEDVKKLLDILEKK
notes: RNA polymerase α subunit, product of the plastid gene rpoA, Sinapis alba
stoichiometry N: ~2
